Data taken from US5968526A, “T cell epitopes of the major allergens from Dermatophagoides (house dust mite)” (Immulogic Pharamaceutical Corporation, priority 1995, dated 1999).

Tested on: not listed separately
Experiment: pH-stability profile / solution stability (HPLC)
Format: physicochemical
Conditions: pH 6 to pH 8
Experimental: (§1) 50 mM sodium phosphate stock solutions:
(§2) Stock solution A: 0.66 g […] of monobasic sodium phosphate monohydrate U.S.P. and 50 mg EDTA disodium dihydrate, U.S.P. were dissolved in 100 mL of WFI. The solution was filtered through a 0.2 micron filter
(§3) Stock solution B: 0.71 g […] of dibasic sodium phosphate U.S.P. were disolved in 100 ml WFI. The solution was filtered through a 0.2 micron filter.
(§4) 2. Initial peptide dispersions
(§5) Dispersion A: 3.0 mg of each candidate peptide,DPI-21.2 (SEQ. ID. NO. 28), DFI-22.2 (SEQ. ID. NO. 93), DFI-23.31(SEQ. ID. NO. 165), DFI-26.6 (SEQ. ID. NO. 168), DPII-20.9 (SEQ. ID. NO. 169), DPII-22.14 (SEQ. ID. NO. 180) and DPII-25.15 (SEQ. ID. NO. 188), was weighed out separately and placed in separate 1.5 mL eppendoff vials with 600 μL of stock solution A. The composition was agitated for 1 seconds to mix well.
(§6) Dispersion B: 3.0 mg of each peptide, DPI-21.2 (SEQ. ID. NO. 28), DFI-22.2 (SEQ. ID. NO. 93), DFI-23.31(SEQ. ID. NO. 165), DFI-26.6 (SEQ. ID. NO. 168), DPII-20.9 (SEQ. ID. NO. 169), DPII-22.14 (SEQ. ID. NO. 180) and DPII-25.15 (SEQ. ID. NO. 188), was weighed out separately and placed in separate 1.5 mL eppendoff vials with 600 μL of stock solution B. The mixture was agitated for 5 seconds to mix well.
(§7) Dispersions A and B were sonicated for 2 minutes for good homogeneity. A small volume was pipetted from each dispersion into a labeled eppendoff vial according to the following volume ratio:
(§8) The resultant solutions/suspensions were stored in the dark at about 22° C.±2 for 24 hours without agitation. The solutions were filtered and filtrates were analyzed for pH and peptide concentration.
(§9) The concentration of filtered peptide solutions was determined by HPLC analysis. In this experiment, the solubility of peptide at each pH is defined as the amount of peptide remaining in solution after filtration through a membrane filter having a 0.2 micrometer pore size. The extent of degradation of peptides was estimated by calculating the percent of total degradant peak area over the total peak area.
The pH-stability profiles for each peptide DPI-21.2 (SEQ. ID. NO. 28), DFI-22.2 (SEQ. ID. NO. 93), DFI-23.31(SEQ. ID. NO. 165), DFI-26.6 (SEQ. ID. NO. 168), DPII-20.9 (SEQ. ID. NO. 169), DPII-22.14 (SEQ. ID. NO. 180) and DPII-25.15 (SEQ. ID. NO. 188) in equal concentration combination at 3, 2, and 1 mg/ml per peptide and prepared in duplicate as described above with one set stored at about 5° C. for 24 hours and one set stored at about 22° C.±2 for 24 hours, were calculated and tabulated as a function of the percentage of total of degradant peak area (FIG. 38).

Substance	stability (in words)
DF I-22.2: VAATESAYLAYRNTSLDLSEQELVD, amino acid residues 40-64 of Der f I	acceptable solution stability
DP I-21.2: Der p I peptide; unique peptide (SINGNAPAEIDLRQMRTVTPIRMQ)	acceptable solution stability
DP I-23.31: modified Der p I peptide; unique peptide (DEEGVVQESYYRYVAREQSCRRPNAE)	acceptable solution stability
DP I-26.6: modified Der p I peptide; unique peptide (DEGIKDLDAFRHYDGRTIIQRDNGYE)	acceptable solution stability
DP II-20.9: modified Der p II peptide; unique peptide (DQVDVKDCANHEIKKVLVPGCHGSE)	acceptable solution stability
DP II-22.14: DKELEAVFEANQNTKTAKAE; unique peptide	acceptable solution stability
DP II-22: QLEAVFEANQNTKTAKIEIKASIDGLEV	stable

Same assay, conditions: pH 6 to pH 8; listed as SEQ. ID. NO. 207

Substance	stability (in words)
DP II-22: QLEAVFEANQNTKTAKIEIKASIDGLEV	nor did it meet the stability requirement

Tested on: mast cells or basophils
Experiment: histamine release
Format: cell-based, human
Conditions: data not shown
Experimental: To determine whether a peptide which binds IgE results in the release of mediators, a histamine release assay can be performed using standard reagents and protocols obtained for example, from Amac, Inc. (Westbrook, Me.). Briefly, a buffered solution of a peptide to be tested is combined with an equal volume of whole heparinized blood from an allergic subject. After mixing and incubation, the cells are pelleted and the supernatants are processed and analyzed using a radioimmunoassay to determine the amount of histamine released.

Substance	histamine release
DF I-22.2: VAATESAYLAYRNTSLDLSEQELVD, amino acid residues 40-64 of Der f I	negative
DP I-21.2: Der p I peptide; unique peptide (SINGNAPAEIDLRQMRTVTPIRMQ)	negative
DP I-23.31: modified Der p I peptide; unique peptide (DEEGVVQESYYRYVAREQSCRRPNAE)	negative
DP I-26.6: modified Der p I peptide; unique peptide (DEGIKDLDAFRHYDGRTIIQRDNGYE)	negative
DP II-20.9: modified Der p II peptide; unique peptide (DQVDVKDCANHEIKKVLVPGCHGSE)	negative
DP II-22.14: DKELEAVFEANQNTKTAKAE; unique peptide	negative

Tested on: not listed separately
Experiment: pH-solubility profile
Format: physicochemical
Conditions: aqueous buffer; superior solubility = >3 mg/ml at pH 6-8
Experimental: as §1, §2, §3, §4, §5, §6, §7, §8, §9
The pH values with respect to the solubility values was plotted and are shown in FIG. 37 for each respective peptide. As shown in the solubility curve for each peptide as represented in FIG. 37, peptides DPI-21.2 (SEQ. ID. NO. 28), DFI-22.2 (SEQ. ID. NO. 93), DFI-23.31 (SEQ. ID. NO. 165), DFI-26.6 (SEQ. ID. NO. 168), DPII-20.9 (SEQ. ID. NO. 169), DPII-22.14 (SEQ. ID. NO. 180) and DPII-25.15 (SEQ. ID. NO. 188) are each soluble at greater than 3 mg/ml at a pH in the pH range of pH 6 to pH 8.

Substance	solubility (in words)
DP II-22.14: DKELEAVFEANQNTKTAKAE; unique peptide	increased by an order of magnitude
DP II-22: QLEAVFEANQNTKTAKIEIKASIDGLEV	did not meet the "superior solubility" requirement of 3 mg/ml

Same assay, conditions: at a pH in the range pH 6 to pH 8

Substance	solubility
DF I-22.2: VAATESAYLAYRNTSLDLSEQELVD, amino acid residues 40-64 of Der f I	greater than 3 mg/ml
DP I-21.2: Der p I peptide; unique peptide (SINGNAPAEIDLRQMRTVTPIRMQ)	greater than 3 mg/ml
DP I-23.31: modified Der p I peptide; unique peptide (DEEGVVQESYYRYVAREQSCRRPNAE)	greater than 3 mg/ml
DP I-26.6: modified Der p I peptide; unique peptide (DEGIKDLDAFRHYDGRTIIQRDNGYE)	greater than 3 mg/ml
DP II-20.9: modified Der p II peptide; unique peptide (DQVDVKDCANHEIKKVLVPGCHGSE)	greater than 3 mg/ml
DP II-22.14: DKELEAVFEANQNTKTAKAE; unique peptide	greater than 3 mg/ml

Tested on: human IgE
Experiment: direct binding ELISA of IgE to mite allergen proteins and peptides
Conditions: data not shown

Substance	IgE reactivity, candidate peptides
DF I-22.2: VAATESAYLAYRNTSLDLSEQELVD, amino acid residues 40-64 of Der f I	negative
DP I-21.2: Der p I peptide; unique peptide (SINGNAPAEIDLRQMRTVTPIRMQ)	negative
DP I-23.31: modified Der p I peptide; unique peptide (DEEGVVQESYYRYVAREQSCRRPNAE)	negative
DP I-26.6: modified Der p I peptide; unique peptide (DEGIKDLDAFRHYDGRTIIQRDNGYE)	negative
DP II-20.9: modified Der p II peptide; unique peptide (DQVDVKDCANHEIKKVLVPGCHGSE)	negative
DP II-22.14: DKELEAVFEANQNTKTAKAE; unique peptide	negative

Same assay, conditions: plasma of 19 mite-allergic patients and pool of 18; Example XV

Substance	IgE binding (ELISA), modified peptides
DP I-23.31: modified Der p I peptide; unique peptide (DEEGVVQESYYRYVAREQSCRRPNAE)	No plasma samples contained IgE
DP II-20.9: modified Der p II peptide; unique peptide (DQVDVKDCANHEIKKVLVPGCHGSE)	No plasma samples contained IgE
DP II-22.14: DKELEAVFEANQNTKTAKAE; unique peptide	No plasma samples contained IgE
